Measurements: paper doi:10.1101/2021.03.29.435803

Biological target: HA-FBXW7 (UniProt Q8VBV4)
Assay: FLAG IP, HA immunoblot
Conditions: reference: wild type

Substance | binding against the reference (sites T243,S247) | binding against the reference (sites T171,S175)
KLF2 (from UniProt Q60843) 2A C (T243A/S247A) | weaker | 
KLF2 (from UniProt Q60843) 2A N (T171A/S175A) |  | weaker
